The record followed here is article doi:10.1101/2023.06.19.545549, “DnaK duplicates and regionally evolves for the increase of proteomic complexity in bacteria” (bioRxiv, 2023).

The data set concerns the molecule itself. Kind of data set: SDS-PAGE of the purified protein (monomer and dimer bands); purified MxDnaKs and chimeras on SDS-PAGE without DTT treatment; band compositions confirmed by LC/MS.

As a reminder, the stoichiometry N is a count of units in the complex or per binding partner.

B1: His6-MxDnaK2, purified recombinant (natural protein, Myxococcus xanthus DK1622, UniProt P95334 1-607, looked up)
chain: MGKVIGIDLGTTNSCVAVMEGGEPVVIPNSEGSRTTPSMVGFTDSGERLVGQIAKRQAITNPENTVFAAKRLIGRKFDSPEGKKAIGVSPFKVASSPNGDAWVEIRGKGYSPPEVSAIVLMKMKQTAEDYLGEQVSEAVITVPAYFNDSQRQATKDAGRIAGLSVLRIINEPTAAALAYGLDKVQDGGTERIAVYDLGGGTFDISILELNAGVFEVKSTNGDTFLGGEDFDQRLIDYLAKRFAESNNGLDLRKDRMALQRLKEAAERAKHELSSAPETEVNLPFITADASGPKHLTETVDRATFEALVTDLIDRTIEPCRIALKDAGIPAQQINQVLLVGGMTRMPRVQQKVKEFFGREPHKGINPDEVVAVGAAIQGGVLKGEVKDVLLLDVTPLSLGVETAGGVFTKIIDKNTTIPCKKSQVFSTAVDNQPLVSVHVLQGEREMAADNKTLARFELVGIPPAPRGVPQIEVSFDIDANGIVHVSAKDLGTGKVQQVRVVSNSGLSEAEIQAMISDAQSHASDDKKKKELAELRNNADGLIYTTEKSLEEYASLLSEKDREEIKADLERLKEVLNTSDAAVLKESFQRLEGSAYRIADAIYTGQAS
notes: MxDnaK2 (MXAN_6671), DnaK of Myxococcus xanthus DK1622; gene amplified from genomic DNA into pET28A; His6-MxDnaK2 printed as 65.3 kDa; source: E. coli BL21 (DE3), purified (Ni-NTA); not shown: His6, N-terminal, kept
As to B1, the “stoichiometry N” value was found to be 2.
